The record followed here is US20250041325A1.

The assay addresses CXCR4 receptor on the surface of RIL-175 murine HCC cells (murine (endogenous on murine RIL-175 HCC cells)) (UniProt P70658). Description: cell-based or functional assay.
Sequence of UniProt P70658 (P70658 whole entry): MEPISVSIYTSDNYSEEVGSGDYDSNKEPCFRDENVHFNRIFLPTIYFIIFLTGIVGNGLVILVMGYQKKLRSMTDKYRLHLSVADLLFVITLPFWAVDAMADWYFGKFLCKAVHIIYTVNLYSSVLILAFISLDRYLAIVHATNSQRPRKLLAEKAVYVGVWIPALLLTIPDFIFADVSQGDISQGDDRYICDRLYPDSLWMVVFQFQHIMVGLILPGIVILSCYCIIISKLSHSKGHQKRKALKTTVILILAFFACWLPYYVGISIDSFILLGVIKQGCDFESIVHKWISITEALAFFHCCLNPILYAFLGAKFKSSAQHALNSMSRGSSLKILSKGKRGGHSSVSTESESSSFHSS

Take “CTCE-9908 peptide conjugated to DSPE-PEG and displayed on polymer-lipid hybrid mRNA nanoparticles (DSPE-PEG-CTCE; CTCE-mRNA NPs)”: the cellular uptake in RIL-175 cells (flow cytometry of EGFP), 5% CTCE-EGFP NPs versus 5% SCP-EGFP NPs (scrambled peptide, SEQ ID NO: 2) is greater than 15 fold and the mean fluorescence intensity of EGFP in transfected RIL-175 cells (flow cytometry), CTCE-EGFP NPs versus SCP-EGFP NPs was determined as 4.5 fold.
